Test: soluble on expression in E. coli; label from the status in PepcDB or PDB records

Sequence	soluble on expression in E. coli
KGDFVFKPYLLVQTCANFNWYDDEGLDKAYNQDNVANSGFSIPYAVLGFTGKAFGKVAFNLSINAAASGGALLQQAWFDVQLKKQFAVRVGKFKTPFSHAYLTTLGETLLPQLPVSLTSAIILPYSLNAVTPNIGTGFDLGVEIHGLLADKFGYEVGLFNGTGSSVNTATKTLSDDWHIPSLLYAGRFTYMPKGVMPSTQGNPNRLNEDKIMFGVSASINVESENESTNDTRVGVEFAMLKNKLYLGAEAYYMNVGFTDRQKINETYNYLGGYVQGGYFVAPRLQAALRYDFFNRNGTSDDGFLNMPAVGVNYFFKGCNLKLQAMYQYIARTGHDTQLDRDNDNLGLATHSATVMLQYTF	not soluble
KGHLTRLGLEFFDQPAVPLARAFLGQVLVRRLPNGTELRGRIVETEAYLGPEDEAAHSRGGRQTPRNRGMFMKPGTLYVYIIYGMYFCMNISSQGDGACVLLRALEPLEGLETMRQLRSTLRKGTASRVLKDRELCSGPSKLCQALAINKSFDQRDLAQDEAVWLERGPLEPSEPAVVAAARVGVGHAGEWARKPLRFYVRGSPWVSVVDRVAEQDTQA	soluble
KGKCVIFIIDGLGDRPNEKGLTPLKEAKTPTMDKIAKEGICGLMNAIDIGIRPGSDTAHLAILGYNPYEVYTGRGPLEAFGVGLDLKEGDIAFRCNFATVDENFVVLDRRAGRISPEEAEELEKEIDGLEIDGVKVIFKSSKGYRGALVLRGEGLSCRVSDGDPHEEGVKVSEIKPLDDSEEAKRTAEILNKLLKIVYEKLNNHPINEERRKKGLPPANIILPRGAGVVPKIEKFSEKYNMKGACICGTGLIKGMAKMIGLDVIEVEGATGTPKTNFMGKAKALVEALKEYDFVLVNVKGADEASHDGNYELKKEVLEKIDEMLAYVFEHINKDEVYFVLTGDHSTPIEMKDHSADPIPIVIWGKSVRVDDVTEFNEFACAKGALHWIKGEHVMKILLDLTG	not soluble
KGLSADKKYFETRVNPTSVFWTGGKWKERLVQIMSQTQEQDILKFLKQTASPAMHELQRELSEEYGLSVRVDKMFHRDEPAIEFVIRKETMRDFMYGIKSVGQDVSDQLINDGKLPHIRHQTTYKPYAYFFDGRVGYDVQYMNKDELIADILKNYERYLMLLDDVGQELMAHEQVELAE	not soluble
KGNTFLWLDDILYCERVDGLVFAYTKNKVYQIFHSLRDLEASYYRLGYVRCSKSMIVNIYKIHYFNSEPYGRIRATMENKEEIIISRKYANRIRTILQ	not soluble
KLGTSTGEFTGSNQTTQPTAIMELINKVQKDAANAQLSIAAPLSSSAYIPKGDVTIKDIMSVYVYENYLYGIKMTGKQLKDWLEYSVRYYKQVSSPNDSIAKDPALNVPDYNLDQLYGATYDIDLTQPACTIDPSTGRIASGDRIKNLKINGVPIKDSDVFTVAINDYRYNGGGGFMKAAGISNTDPSIVTYSSAKALGDDGQVRSLMQSYIKNNQTISPENSNNWKLYTT	not soluble
KLKNYKTSELMIQSSNNYKLESLFITSNIKTRDTMILVHGIGSSYYEMLKVAYRYLDKGYNVLVYNQRNTGNSGGDNYTFGLYERYDLDSLVKFVKNKFPEGRLGVHGFSMGAGTAAMHSEINSKDDKVDFYILDSPYSEMKDAIRMGVLEKRIPDILINYVVTCGDLYNKFKSGFWYSDVKPYESVEKSNVPILFIHGTKDTVCNYQNSKKMYDLVKHDKKDLWLIEGIGHVDGFEHDSTVYFNKIFKFIDSNVLSDKS	not soluble
KNNPDPTIYPVLDWNDIKFQDVIGEGNFGQVLKARIKKDGLRMDAAIKRMKEYASKDDHRDFAGELEVLCKLGHHPNIINLLGACEHRGYLYLAIEYAPHGNLLDFLRKSRVLETDPAFAIANSTASTLSSQQLLHFAADVARGMDYLSQKQFIHRDLAARNILVGENYVAKIADFGLSRGQEVYVKKTMGRLPVRWMAIESLNYSVYTTNSDVWSYGVLLWEIVSLGGTPYCGMTCAELYEKLPQGYRLEKPLNCDDEVYDLMRQCWREKPYERPSFAQILVSLNRMLEERKTYVNTTLYEKFTYAGIDCSAEEAA	soluble
KPPIPPQVEEEYYTIAEFQTTIPDGISFQAGLKVEVIEKNLSGWWYIQIEDKEGWAPATFIDKYKKTSNASRPNFLAPLPHEVTQLRLGEAAALENNTGSEATGPSRPLPDAPHGVMDSGLPWSKDWKGSKDVLRKASSDMSASAGYEEISDPDMEEKPSLPPRKESIIKSEGELLERERERQRTEQLRGPTPKPPGVILPMMPAKHIPPARDSRRPEPKPDKSRLFQLKNDMGLECGHKVLAKEVKKPNLRPISKSKTDLPEEKPDATPQNPFLKSRPQVRPKPAPSPKTEPPQGEDQVDICNLRSKLRPAKSQDKSLLDGEGPQAVGGQDVAFSRSFLPGEGPGRAQDRTGKQDGLSPKEISCRAPPRPAKTTDPVSKSVPVPLQEAPQQRPVVPPRRPPPPKKTSSSSRPLPEVRGPQCEGHESRAAPTPGRALLVPPKAKPFLSNSLGGQDDTRGKGSLGPWGTGKIGENREKAAAASVPNADGLKDSLYVAVADFEGDKDTSSFQEGTVFEVREKNSSGWWFCQVLSGAPSWEGWIPSNYLRKKP	soluble
KPYPYQQDMLESLQAEREQHNRHRNLLVAATGTGKTVVAALDYRSMCDALGRRPRLLFIAHRKEILQQALRTFREVLSDGNFGELLVDGVLPKEWTHVFASIQSLNTSRMEALGKDHFEFIIIDEFHHAQAISYRKVMDYFEPQELLGLTATPERG	not soluble
KREPALNPNEYKKFMLREKQIINHNTRLFRFNLHHPEDVVGLPIGQHMSVKATVDGKEIYRPYTPVSSDDEKGYFDLIIKVYEKGQMSQYIDHLNPGDFLQVRGPKGQFDYKPNMVKEMGMIAGGTGITPMLQVARAIIKNPKEKTIINLIFANVNEDDILLRTELDDMAKKYSNFKVYYVLNNPPAGWTGGVGFVSADMIKQHFSPPSSDIKVMMCGPPMMNKAMQGHLETLGYTPEQWFIF	soluble
KRQKIHLGDRSQKCSKCGIIFIRRSTLSRRKTPMCEKCRKDSCQEAALNKDEGNESGKKT	soluble
KSAIVHLINYQDDAELATRALPELTKLLNDEDPVVVTKAAMIVNQLSKKEASRRALMGSPQLVAAVVRTMQNTSDLDTARCTTSILHNLSHHREGLLAIFKSGGIPALVRMLSSPVESVLFYAITTLHNLLLYQEGAKMAVRLADGLQKMVPLLNKNNPKFLAITTDCLQLLAYGNQESKLIILANGGPQALVQIMRNYSYEKLLWTTSRVLKVLSVCPSNKPAIVEAGGMQALGKHLTSNSPRLVQNCLWTLRNLSDVATKQEGLESVLKILVNQLSVDDVNVLTCATGTLSNLTCNNSKNKTLVTQNSGVEALIHAILRAGDKDDITEPAVCALRHLTSRHPEAEMAQNSVRLNYGIPAIVKLLNQPNQWPLVKATIGLIRNLALCPANHAPLQEAAVIPRLVQLLVKAHQDAQRHVAAGTQQPYTDGVRMEEIVEGCTGALHILARDPMNRMEIFRLNTIPLFVQLLYSSVENIQRVAAGVLCELAQDKEAADAIDAEGASAPLMELLHSRNEGTATYAAAVLFRISEDKNPDYRKRVSVELTNSLFKHD	soluble
KSLLTAKTRNTIIFAFHPQAQKSSVAAAKIVYQAARKAGAPKDFIQWIETPSLENTTALMQNPEIASILATGGPSMVHAALTSGNPSMGVGAGNGAVFIDHTARVRRAAEDLLLSKRFDNGMICATE	not soluble
KTGFFVGPMAEFTLPIIGIGADVAALYSQTDLGADGEKTMKLKTFAVPVNLKWSFGLGSMLGAYIAAGPQFDFNIGNKTWTRELSLKKSTTSFNVGAGLKLIRHLQLGVNYNFALSKTGTYEYYTEGESGDGHHSVNIKNNTWQVSLAYLF	not soluble
LDDYDWFAGNISRSQSEQLLRQKGKEGAFMVRNSSQVGMYTVSLFSKAVNDKKGTVKHYHVHTNAENKLYLAENYCFDSIPKLIHYHQHNSAGMITRLRHPVS	soluble
LDPEEIRKRLEHTERQFRNRRKILIRGLPGDVTNQEVHDLLSDYELKYCFVDKYKGTAFVTLLNGEQAEAAINAFHQSRLRERELSVQLQPTDALLCVANLPPSLTQQQFEELVRPFGSLERCFLVYSERTGQSKGYGFAEYMKKDSAARAKSDLLGKPLGPRTLYVHWTDAGQLTPALLHSRCLCVDRLPPGFNDVDALCRALSAVHSPTFCQLACGQDGQLKGFAVLEYETAEMAEEAQQQADGLSLGGSHLRVSFCAPGPPGRSMLAALIAAQATALNRG	soluble
LGGVFKKAGSKGLKGVRLVISDAHEGLKAAIKKILTGSAWQRCRVHFMRNVLSQVPKHYQGMVSSIIRTIFAQNDQESAREQLRHVVDELKNRFPKAMKILEEAEEEILAYMAFPREHWAQIHSTNPLERLNREIRRRTDVVCIFPNREAVIRLVGAMLMEQNDEWKVGRRYFSLESMSKITSINEFTLTPVALLHK	soluble
LITPQYKSEAKLYVLSKETTLTSLADLQIGSQLTQDYKILVGSRPVLQGVVDHMKLDMTYRKLEKKLTIDNPNNTRILTLTIKDPNPYLAKSIVDEVANTASDYIGEIMEMVPPKLIEDGEVASEKASPNVLKNT	not soluble
LKEILDEMFRDEVQKLKYFLEDVKEEDEELYNKIVDALKLFKENYEIEDIKIPKKIRVFLVKNNILFLNPQKGSLKPQSYLVWNAIKMLL	not soluble
LLRHISDAFAEDPLRVLRVARFAARFHHLGFSIAEQTLELMQKMTACGELNHLTAERIWRETEKALHTESPHIYFQVLRKVNALAILFPEIDQLFGQIQSVKYHLETDRGQHTLLALQQAKLLVKQAHNPTALLWAVLCHDLGKDLISAEMLPHHYQPNVTGIQLTHQLADRLKVPTAVKELALLVNKYHTNCHKIAELDSERVLELFNQLDVWRKPQRLDDFLLACEADARARLGAEYCSYPQA	not soluble
LNLSGLSLSCEYQPFVCPHTKHIHGYEALARFYLGQGQAIAPNLVFEQLHENSNALAAVEFQAKTFQLKHAPARQSLFVNVDPHAANGVHTQKLLDLLSSHPQLTVEIIENTCISDAELANQLFHQFKTANLNVALDDIGAPHSMLSVDLMMNVDYLKFDRHWLNLVAEPHGIALLSALIEFGKRTGKQCILEGIETEAQLQLARELNVDLVQGFLFKP	not soluble
LNSPMITIVGTRTMTNYGKKILEEFVPKIIDSGIAVVSGLAKGIDAYAHQLALEKQGTAIAVIGNGTNISYPAENQSIQKRIISDGLLLSEYFPKSRPKQYHFPARNRILAGLTSATLVVEAKERSGSLITAAYATQENRNVLAIPGDLNRNNSNGTNQLIADGAKAVLKIDDILNE	not soluble
LPIISIDTKQQVIPLVTKEGGKYVKARDNINVDIELRDSPSRSHHLSEKPRIRTKGLISYRGNTSRYFDKKSLKVKFVTNKLKEKKHRLAGMPKESEWVLHGPFLDRTLLRNYLSYNIAGEIMSYAPNVRYCELFVNGEYQGVYLAVENIEQGEQRVPIEKSDKKLHKTPYIVAWDREHKAKQKLDNYVHYTHQSGISALDVKYPGKQRLTSKQLEFINKDINHIEKVLYSYDFSQYPKYIDRESFANYFVINEFFRNVDAGKFSTYLYKDLRDRAKLVVWDFNNAFDNQIEGRVDEADFTLTDAPWFNMLIKDKAFIDLVVHRYKELRKGVLATEYLSNYIDETRHFLGPAIDRNYKKWGYVFDLKNTDPRNYLIPTERNVTSYHKSVEQLKDFIKKRGRWMDRNIETLYQYSAPSKNTNTLLE	not soluble
LPKPGVYYFPWEVSDGHVPEGSTLRTFGRLYLYDMARSLMTLAAPQKPDQCQLLVCTNLVEPFEAHVNFLYMVLGDLERMEGGAFVVRARLLTCVEGMDLSLLEKAILEQRRHLQKRQQPIGDASTLQTPTPAPQSIPSD	not soluble
LPSSPPAEEAIIDWPVALRQSANKEDLAKEMLGMLVDYLREVETVVNTALEDEEYPASDLLHHIHKLHGSCSYSGVPRLRKICASLEQALRNGASIDELEPELFELQDEMAKVLEASRDYLN	not soluble

Reference: the DeepSol protein solubility set
